Measured values: PMC3925836 (Advanced healthcare materials, 2013)
Substitutions are numbered along the chain they refer to. Each block holds one binder with its values, some of them ahead of it.

Tests used:
dynamic light scattering = molecular target: the molecule itself; test: dynamic light scattering
GPSP-P40-I60 = molecular target: T1, GPSP-P40-I60; test: SYPRO Orange thermal transition assay
T1 chain: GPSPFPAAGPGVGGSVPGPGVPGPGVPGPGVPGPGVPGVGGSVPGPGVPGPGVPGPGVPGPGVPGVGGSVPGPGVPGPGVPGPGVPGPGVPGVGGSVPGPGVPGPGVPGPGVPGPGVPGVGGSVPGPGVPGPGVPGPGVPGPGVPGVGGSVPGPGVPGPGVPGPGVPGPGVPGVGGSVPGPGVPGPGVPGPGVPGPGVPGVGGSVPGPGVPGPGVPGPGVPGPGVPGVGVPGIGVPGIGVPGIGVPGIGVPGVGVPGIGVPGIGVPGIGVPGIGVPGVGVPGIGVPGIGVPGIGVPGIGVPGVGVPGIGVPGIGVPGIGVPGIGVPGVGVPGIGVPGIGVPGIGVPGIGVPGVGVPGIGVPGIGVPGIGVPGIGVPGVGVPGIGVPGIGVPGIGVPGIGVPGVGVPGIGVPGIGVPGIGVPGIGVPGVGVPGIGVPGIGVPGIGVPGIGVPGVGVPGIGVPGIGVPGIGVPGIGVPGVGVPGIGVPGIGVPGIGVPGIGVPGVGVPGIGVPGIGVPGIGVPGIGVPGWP

GPRP-P40-I60-C = molecular target: T2, GPRP-P40-I60-C; test: ELISA
T2 chain: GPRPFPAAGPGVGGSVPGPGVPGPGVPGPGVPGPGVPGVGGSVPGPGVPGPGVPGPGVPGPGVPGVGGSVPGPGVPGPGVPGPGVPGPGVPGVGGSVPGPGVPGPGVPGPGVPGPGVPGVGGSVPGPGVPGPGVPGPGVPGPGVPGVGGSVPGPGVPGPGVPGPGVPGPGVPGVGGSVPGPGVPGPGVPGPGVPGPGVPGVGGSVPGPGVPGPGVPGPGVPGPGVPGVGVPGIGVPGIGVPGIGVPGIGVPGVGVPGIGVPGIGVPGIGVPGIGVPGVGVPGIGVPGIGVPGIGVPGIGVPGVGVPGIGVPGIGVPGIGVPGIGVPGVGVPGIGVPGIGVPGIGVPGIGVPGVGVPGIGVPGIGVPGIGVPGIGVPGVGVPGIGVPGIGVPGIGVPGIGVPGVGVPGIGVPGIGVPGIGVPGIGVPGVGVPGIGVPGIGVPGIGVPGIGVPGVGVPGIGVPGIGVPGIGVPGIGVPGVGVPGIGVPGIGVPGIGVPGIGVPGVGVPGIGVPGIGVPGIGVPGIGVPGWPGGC

GPRP-A80-I60-C = molecular target: T3, GPRP-A80-I60-C; test: ELISA
T3 chain: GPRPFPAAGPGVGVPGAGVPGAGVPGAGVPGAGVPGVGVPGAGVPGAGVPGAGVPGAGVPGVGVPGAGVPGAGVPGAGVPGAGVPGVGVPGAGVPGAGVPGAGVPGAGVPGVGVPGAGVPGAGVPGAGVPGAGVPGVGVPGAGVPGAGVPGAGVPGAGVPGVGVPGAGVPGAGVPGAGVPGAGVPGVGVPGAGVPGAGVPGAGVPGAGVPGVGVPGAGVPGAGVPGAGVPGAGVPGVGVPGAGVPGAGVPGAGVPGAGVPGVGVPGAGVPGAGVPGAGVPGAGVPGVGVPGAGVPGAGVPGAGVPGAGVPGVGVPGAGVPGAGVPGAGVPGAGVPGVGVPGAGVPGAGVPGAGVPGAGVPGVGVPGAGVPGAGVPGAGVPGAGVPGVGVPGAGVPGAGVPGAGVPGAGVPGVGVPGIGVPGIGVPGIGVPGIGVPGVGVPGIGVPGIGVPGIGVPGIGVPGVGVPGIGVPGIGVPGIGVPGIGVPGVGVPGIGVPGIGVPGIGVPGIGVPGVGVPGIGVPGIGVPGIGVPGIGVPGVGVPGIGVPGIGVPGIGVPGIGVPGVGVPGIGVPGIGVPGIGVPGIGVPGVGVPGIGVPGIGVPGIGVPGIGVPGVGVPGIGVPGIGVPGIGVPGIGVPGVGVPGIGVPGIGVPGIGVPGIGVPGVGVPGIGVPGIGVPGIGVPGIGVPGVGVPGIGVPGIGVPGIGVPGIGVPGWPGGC

B1: GPRP-P40-I60 (designed binder)
chain: T1 chain with S3R
- binding result (dynamic light scattering): binds

- binding result (GPSP-P40-I60): binds
B2: GPRP-A80-I60 (designed binder)
chain: GPRPFPAAGPGVGVPGAGVPGAGVPGAGVPGAGVPGVGVPGAGVPGAGVPGAGVPGAGVPGVGVPGAGVPGAGVPGAGVPGAGVPGVGVPGAGVPGAGVPGAGVPGAGVPGVGVPGAGVPGAGVPGAGVPGAGVPGVGVPGAGVPGAGVPGAGVPGAGVPGVGVPGAGVPGAGVPGAGVPGAGVPGVGVPGAGVPGAGVPGAGVPGAGVPGVGVPGAGVPGAGVPGAGVPGAGVPGVGVPGAGVPGAGVPGAGVPGAGVPGVGVPGAGVPGAGVPGAGVPGAGVPGVGVPGAGVPGAGVPGAGVPGAGVPGVGVPGAGVPGAGVPGAGVPGAGVPGVGVPGAGVPGAGVPGAGVPGAGVPGVGVPGAGVPGAGVPGAGVPGAGVPGVGVPGAGVPGAGVPGAGVPGAGVPGVGVPGIGVPGIGVPGIGVPGIGVPGVGVPGIGVPGIGVPGIGVPGIGVPGVGVPGIGVPGIGVPGIGVPGIGVPGVGVPGIGVPGIGVPGIGVPGIGVPGVGVPGIGVPGIGVPGIGVPGIGVPGVGVPGIGVPGIGVPGIGVPGIGVPGVGVPGIGVPGIGVPGIGVPGIGVPGVGVPGIGVPGIGVPGIGVPGIGVPGVGVPGIGVPGIGVPGIGVPGIGVPGVGVPGIGVPGIGVPGIGVPGIGVPGVGVPGIGVPGIGVPGIGVPGIGVPGVGVPGIGVPGIGVPGIGVPGIGVPGWP

- binding result (GPSP-P40-I60): binds
B3: GPSP-A80-I60 (designed binder)
chain: B2 chain with R3S
- binding result (dynamic light scattering): binds

- % normalized signal (GPRPFPAC-coated wells = 100 %), saturated wells (GPRP-P40-I60-C): > 100%
- % normalized signal (GPRPFPAC-coated wells = 100 %), saturated wells (GPRP-A80-I60-C): > 100%
B4: fibrinogen, P02671 36-866; P02675 45-491; P02679 27-453 (complex)
chain 1: ADSGEGDFLAEGGGVRGPRVVERHQSACKDSDWPFCSDEDWNYKCPSGCRMKGLIDEVNQDFTNRINKLKNSLFEYQKNNKDSHSLTTNIMEILRGDFSSANNRDNTYNRVSEDLRSRIEVLKRKVIEKVQHIQLLQKNVRAQLVDMKRLEVDIDIKIRSCRGSCSRALAREVDLKDYEDQQKQLEQVIAKDLLPSRDRQHLPLIKMKPVPDLVPGNFKSQLQKVPPEWKALTDMPQMRMELERPGGNEITRGGSTSYGTGSETESPRNPSSAGSWNSGSSGPGSTGNRNPGSSGTGGTATWKPGSSGPGSTGSWNSGSSGTGSTGNQNPGSPRPGSTGTWNPGSSERGSAGHWTSESSVSGSTGQWHSESGSFRPDSPGSGNARPNNPDWGTFEEVSGNVSPGTRREYHTEKLVTSKGDKELRTGKEKVTSGSTTTTRRSCSKTVTKTVIGPDGHKEVTKEVVTSEDGSDCPEAMDLGTLSGIGTLDGFRHRHPDEAAFFDTASTGKTFPGFFSPMLGEFVSETESRGSESGIFTNTKESSSHHPGIAEFPSRGKSSSYSKQFTSSTSYNRGDSTFESKSYKMADEAGSEADHEGTHSTKRGHAKSRPV
chain 2: QGVNDNEEGFFSARGHRPLDKKREEAPSLRPAPPPISGGGYRARPAKAAATQKKVERKAPDAGGCLHADPDLGVLCPTGCQLQEALLQQERPIRNSVDELNNNVEAVSQTSSSSFQYMYLLKDLWQKRQKQVKDNENVVNEYSSELEKHQLYIDETVNSNIPTNLRVLRSILENLRSKIQKLESDVSAQMEYCRTPCTVSCNIPVVSGKECEEIIRKGGETSEMYLIQPDSSVKPYRVYCDMNTENGGWTVIQNRQDGSVDFGRKWDPYKQGFGNVATNTDGKNYCGLPGEYWLGNDKISQLTRMGPTELLIEMEDWKGDKVKAHYGGFTVQNEANKYQISVNKYRGTAGNALMDGASQLMGENRTMTIHNGMFFSTYDRDNDGWLTSDPRKQCSKEDGGGWWYNRCHAANPNGRYYWGGQYTWDMAKHGTDDGVVWMNWKGSWYSMRKMSMKIRPFFPQQ
chain 3: YVATRDNCCILDERFGSYCPTTCGIADFLSTYQTKVDKDLQSLEDILHQVENKTSEVKQLIKAIQLTYNPDESSKPNMIDAATLKSRKMLEEIMKYEASILTHDSSIRYLQEIYNSNNQKIVNLKEKVAQLEAQCQEPCKDTVQIHDITGKDCQDIANKGAKQSGLYFIKPLKANQQFLVYCEIDGSGNGWTVFQKRLDGSVDFKKNWIQYKEGFGHLSPTGTTEFWLGNEKIHLISTQSAIPYALRVELEDWNGRTSTADYAMFKVGPEADKYRLTYAYFAGGDAGDAFDGFDFGDDPSDKFFTSHNGMQFSTWDNDNDKFEGNCAEQDGSGWWMNKCHAGHLNGVYYQGGTYSKASTPNGYDNGIIWATWKTRWYSMKKTTMKIIPFNRLTIGEGQQHHLGGAKQAGDV
modifications: not checked
